# B1: Pistol ribozyme (parent)
# chain: GGGUCGUUGUUCCAUAAUCGCGUGGAUAUGGCACGCAAGUUUCUACCGGGCACCGUAAAUGUCCGACUGGAGCCGUUCGGGCGGCUAUAAACAGACCUCAGGCCCGAAGCGUGGCGGCACCUGCCGCCGGUGGUAAAAAAGAUCGGAAGAGCACACGUCU
# Variants of: B1
# Test: aptazyme ON/OFF ratio, guanine; higher = stronger switching; co-transcriptional cleavage with and without guanine
row,Variant,aptazyme ON/OFF ratio
1,G9U U10G U11G C12G,1.82
2,G9U U10G U11G C12A,1.75
3,G9U U10G U11G C12U,1.33
4,U10G U11C C13G,1.04
5,U10G U11C C13U,1.04
6,U10G U11C C13A,1.05
7,G9U U11G C12A C13U,1.36
8,G9U U11G C12A C13G,1.32
9,G9U U11G C12A C13A,1.31
10,U10C U11A C12G C13G,1.25
11,U10C U11A C12G C13A,1.29
12,U10C U11A C12G C13U,1.37
13,U10C U11A C12A C13U,1.35
14,U10C U11A C12A C13G,1.36
15,U10C U11A C12A C13A,1.37
16,G9U U10C U11G C12G C13G,1.24
17,G9U U10C U11G C12G C13A,1.17
18,G9U U10C U11G C12G C13U,1.12
19,G9U U10C U11G C12U C13G,1.34
20,G9U U10C U11G C12U C13U,1.41
21,G9U U10C U11G C12U C13A,1.46

row,Variant,aptazyme ON/OFF ratio
1,U10G C13G,1.32
2,U10G C13U,1.5
3,U10G C13A,1.13
4,U10G U11C C12G C13A,1.28
5,U10G U11C C12G C13G,1.14
6,U10G U11C C12G C13U,1.48
7,U10G U11C,1.03
8,U10G U11G,1.22
9,U10G U11A,1.12
10,G9U U11A C12U C13G,1.5
11,G9U U11A C12U C13U,1.65
12,G9U U11A C12U C13A,1.02
13,U10G U11A C12A C13G,1.06
14,U10G U11A C12A C13A,1.11
15,U10G U11A C12A C13U,1.27
16,U11A,1.84
17,U10G U11A C13A,1.15
18,U10G U11A C13G,1.12
19,U10G U11A C13U,1.05
20,U10C U11A,1.47
21,U10C U11G,1.57

row,Variant,aptazyme ON/OFF ratio
1,U10C U11C,1.06
2,U10A U11C C12G C13G,1.29
3,U10A U11C C12G C13A,1.15
4,U10A U11C C12G C13U,1.23
5,G9U U10G U11A C12G,2.23
6,G9U U10G U11A C12U,1.3
7,G9U U10G U11A C12A,1.63
8,U10C U11G C12U C13U,1.28
9,U10C U11G C12U C13A,1.36
10,U10C U11G C12U C13G,1.33
11,G9U U10G U11C C12G C13U,1.27
12,G9U U10G U11C C12G C13G,1.06
13,G9U U10G U11C C12G C13A,1.27
14,U10C U11A C12G,1.47
15,U10C U11A C12U,1.45
16,U10C U11A C12A,1.48
17,G9U U10G U11A C12G C13A,1.18
18,G9U U10G U11A C12G C13U,1.07
19,G9U U10G U11A C12G C13G,1.08
20,G9U U10G C12U C13A,1.35
21,G9U U10G C12U C13U,1.26

row,Variant,aptazyme ON/OFF ratio
1,G9U U10G C12U C13G,1.66
2,U10G U11G C12A C13G,1.11
3,U10G U11G C12A C13U,1.22
4,U10G U11G C12A C13A,1.15
5,U10A C12A,1.62
6,U10A C12G,1.65
7,U10A C12U,1.16
8,G9U U11A C13G,1.13
9,G9U U11A C13U,1.44
10,G9U U11A C13A,1.48
11,G9U U10C U11G C12U,2.12
12,G9U U10C U11G C12A,1.13
13,G9U U10C U11G C12G,1.2
14,G9U U11A C12A C13G,1.31
15,G9U U11A C12A C13U,1.23
16,G9U U11A C12A C13A,1.59
17,U10A U11A C12U,1.64
18,U10A U11A C12A,1.18
19,U10A U11A C12G,1.83
20,U10A U11C C12A C13U,1.23

# — the RNAGym collection of RNA variant scans (doi:10.1021/acssynbio.7b00057)
